# FireProtDB
# Conditions: Escherichia coli (strain K12), Thermal, CD, whole UniProt chain shown; for unfolding free energy: reversible: yes
# [1] = pH 0.53, glycine-HCl 10 mM, reversible: yes (95%)
# [2] = pH 0.83, glycine-HCl 10 mM, reversible: yes (96%)
# [3] = pH 1.02, glycine-HCl 10 mM, reversible: yes (98%)
# [4] = pH 1.07, glycine-HCl 10 mM, reversible: yes (88%)
# [5] = pH 1.08, glycine-HCl 10 mM, reversible: yes (102%)
# [6] = pH 1.14, glycine-HCl 10 mM, reversible: yes (101%)
# [7] = pH 1.24, glycine-HCl 10 mM, reversible: yes (103%)
# [8] = pH 1.28, glycine-HCl 10 mM, reversible: yes (100%)
# [9] = pH 1.3, glycine-HCl 10 mM, reversible: yes (101%)
# [10] = pH 1.31, glycine-HCl 10 mM, reversible: yes (94%)
# [11] = pH 1.4, glycine-HCl 10 mM, reversible: yes (91%)
# [12] = pH 1.41, glycine-HCl 10 mM, reversible: yes (98%)
# [13] = pH 1.45, glycine-HCl 10 mM, reversible: yes (101%)
# [14] = pH 1.52, glycine-HCl 10 mM, reversible: yes (107%)
# [15] = pH 1.55, glycine-HCl 10 mM, reversible: yes (93%)
# [16] = pH 1.55, glycine-HCl 10 mM, reversible: yes (104%)
# [17] = pH 1.62, glycine-HCl 10 mM, reversible: yes (100%)
# [18] = pH 1.63, glycine-HCl 10 mM, reversible: yes (108%)
# [19] = pH 1.67, glycine-HCl 10 mM, reversible: yes (108%)
# [20] = pH 1.71, glycine-HCl 10 mM, reversible: yes (98%)
# [21] = pH 1.75, glycine-HCl 10 mM, reversible: yes (90%)
# [22] = pH 1.76, glycine-HCl 10 mM, reversible: yes (101%)
# [23] = pH 1.79, glycine-HCl 10 mM, reversible: yes (104%)
# [24] = pH 1.84, glycine-HCl 10 mM, reversible: yes (110%)
# [25] = pH 1.94, glycine-HCl 10 mM, reversible: yes (88%)
# [26] = pH 2, glycine-HCl 10 mM, reversible: yes (98%)
# [27] = pH 2.03, glycine-HCl 10 mM, reversible: yes (109%)
# [28] = pH 2.04, glycine-HCl 10 mM, reversible: yes (95%)
# [29] = pH 2.15, glycine-HCl 10 mM, reversible: yes (92%)
# [30] = pH 2.18, glycine-HCl 10 mM, reversible: yes (90%)
# [31] = pH 2.22, glycine-HCl 10 mM, reversible: yes (95%)
# [32] = pH 2.39, glycine-HCl 10 mM, reversible: yes (95%)
# [33] = pH 2.45, glycine-HCl 10 mM, reversible: yes (96%)
# [34] = pH 2.53, glycine-HCl 10 mM, reversible: yes (92%)
# [35] = pH 2.65, glycine-HCl 10 mM, reversible: yes (91%)
# [36] = pH 2.79, glycine-HCl 10 mM, reversible: yes (92%)
# [37] = pH 2.86, glycine-HCl 10 mM, reversible: yes (97%)
# [38] = pH 2.95, glycine-HCl 10 mM, reversible: yes (92%)
# [39] = pH 3.06, glycine-HCl 10 mM, reversible: yes (90%)
# [40] = pH 3.1, glycine-HCl 10 mM, reversible: yes (85%)
# [41] = pH 3.11, glycine-HCl 10 mM, reversible: yes (91%)
# [42] = pH 3.18, glycine-HCl 10 mM, reversible: yes (93%)
# [43] = pH 3.25, glycine-HCl 10 mM, reversible: yes (94%)
# [44] = pH 3.26, glycine-HCl 10 mM, reversible: yes (95%)
# [45] = pH 3.34, glycine-HCl 10 mM, reversible: yes (94%)
# [46] = pH 3.38, glycine-HCl 10 mM, reversible: yes (96%)
# [47] = pH 3.64, glycine-HCl 10 mM, reversible: yes (93%)
# [48] = pH 3.98, glycine-HCl 10 mM, reversible: yes (93%)
# [49] = pH 4, glycine-HCl 10 mM, reversible: yes (94%)
protein,measurement,setting,value
"Ribonuclease HI wild type, P0A7Y4 (protein) MLKQVEIFTDGSCLGNPGPGGYGAILRYRGREKTFSAGYTRTTNNRMELMAAIVALEALKEHCEVILSTDSQYVRQGITQWIHNWKKRGWKTADKKPVKNVDLWQRLDAALGQHQIKWEWVKGHAGHPENERCDELARAAAMNPTLEDTGYQVEV",Tm,[1],23.6 °C
same,unfolding enthalpy (van 't Hoff),[1],41.2 kcal/mol
same,Tm,[2],23.9 °C
same,unfolding enthalpy (van 't Hoff),[2],37.3 kcal/mol
same,Tm,[3],20.4 °C
same,unfolding enthalpy (van 't Hoff),[3],34.7 kcal/mol
same,Tm,[4],24.9 °C
same,unfolding enthalpy (van 't Hoff),[4],35.3 kcal/mol
same,Tm,[5],22.3 °C
same,unfolding enthalpy (van 't Hoff),[5],49.6 kcal/mol
same,Tm,[6],21.5 °C
same,unfolding enthalpy (van 't Hoff),[6],51.5 kcal/mol
same,Tm,[7],21.5 °C
same,unfolding enthalpy (van 't Hoff),[7],48.7 kcal/mol
same,Tm,[8],23 °C
same,unfolding enthalpy (van 't Hoff),[8],52.7 kcal/mol
same,Tm,[9],21.2 °C
same,unfolding enthalpy (van 't Hoff),[9],56.9 kcal/mol
same,Tm,[10],20.9 °C
same,unfolding enthalpy (van 't Hoff),[10],45.5 kcal/mol
same,Tm,[11],20.3 °C
same,unfolding enthalpy (van 't Hoff),[11],52.9 kcal/mol
same,Tm,[12],21 °C
same,unfolding enthalpy (van 't Hoff),[12],46.1 kcal/mol
same,Tm,[13],21.8 °C
same,unfolding enthalpy (van 't Hoff),[13],52 kcal/mol
same,Tm,[14],21.5 °C
same,unfolding enthalpy (van 't Hoff),[14],55.3 kcal/mol
same,Tm,[15],21.7 °C
same,unfolding enthalpy (van 't Hoff),[15],53.4 kcal/mol
same,Tm,[16],20.8 °C
same,unfolding enthalpy (van 't Hoff),[16],54.4 kcal/mol
same,Tm,[17],20.6 °C
same,unfolding enthalpy (van 't Hoff),[17],56.4 kcal/mol
same,Tm,[18],21.9 °C
same,unfolding enthalpy (van 't Hoff),[18],55.7 kcal/mol
same,Tm,[19],23.6 °C
same,unfolding enthalpy (van 't Hoff),[19],70.6 kcal/mol
same,Tm,[20],21.1 °C
same,unfolding enthalpy (van 't Hoff),[20],58.3 kcal/mol
same,Tm,[21],21.7 °C
same,unfolding enthalpy (van 't Hoff),[21],72.5 kcal/mol
same,Tm,[22],25.2 °C
same,unfolding enthalpy (van 't Hoff),[22],78.5 kcal/mol
same,Tm,[23],23.9 °C
same,unfolding enthalpy (van 't Hoff),[23],60.7 kcal/mol
same,Tm,[24],23.9 °C
same,unfolding enthalpy (van 't Hoff),[24],64.8 kcal/mol
same,Tm,[25],24.8 °C
same,unfolding enthalpy (van 't Hoff),[25],74.6 kcal/mol
same,unfolding free energy,"pH 2, 10 °C, glycine-HCl 10 mM",2 kcal/mol
same,Tm,[26],26.5 °C
same,unfolding enthalpy (van 't Hoff),[26],61.3 kcal/mol
same,Tm,[27],28.7 °C
same,unfolding enthalpy (van 't Hoff),[27],67.9 kcal/mol
same,Tm,[28],28.5 °C
same,unfolding enthalpy (van 't Hoff),[28],70.6 kcal/mol
same,Tm,[29],29.9 °C
same,unfolding enthalpy (van 't Hoff),[29],67.1 kcal/mol
same,Tm,[30],32.5 °C
same,unfolding enthalpy (van 't Hoff),[30],63.5 kcal/mol
same,Tm,[31],33 °C
same,unfolding enthalpy (van 't Hoff),[31],65.8 kcal/mol
same,Tm,[32],35.5 °C
same,unfolding enthalpy (van 't Hoff),[32],66.7 kcal/mol
same,Tm,[33],35.4 °C
same,unfolding enthalpy (van 't Hoff),[33],71.8 kcal/mol
same,Tm,[34],39.8 °C
same,unfolding enthalpy (van 't Hoff),[34],76 kcal/mol
same,Tm,[35],42.3 °C
same,unfolding enthalpy (van 't Hoff),[35],81.3 kcal/mol
same,Tm,[36],46.1 °C
same,unfolding enthalpy (van 't Hoff),[36],89 kcal/mol
same,Tm,[37],46.4 °C
same,unfolding enthalpy (van 't Hoff),[37],80.5 kcal/mol
same,Tm,[38],50.1 °C
same,unfolding enthalpy (van 't Hoff),[38],91.6 kcal/mol
same,unfolding free energy,"pH 3, 10 °C, glycine-HCl 10 mM",8.14 kcal/mol
same,unfolding free energy,"pH 3, 25 °C, glycine-HCl 10 mM",6.08 kcal/mol
same,Tm,[39],50.7 °C
same,unfolding enthalpy (van 't Hoff),[39],102 kcal/mol
same,Tm,[40],53.9 °C
same,unfolding enthalpy (van 't Hoff),[40],106 kcal/mol
same,Tm,[41],52.2 °C
same,unfolding enthalpy (van 't Hoff),[41],101 kcal/mol
same,Tm,[42],54 °C
same,unfolding enthalpy (van 't Hoff),[42],102 kcal/mol
same,Tm,[43],55.1 °C
same,unfolding enthalpy (van 't Hoff),[43],109 kcal/mol
same,Tm,[44],58.9 °C
same,unfolding enthalpy (van 't Hoff),[44],96.6 kcal/mol
same,Tm,[45],57.6 °C
same,unfolding enthalpy (van 't Hoff),[45],100 kcal/mol
same,Tm,[46],57.4 °C
same,unfolding enthalpy (van 't Hoff),[46],101 kcal/mol
same,Tm,[47],62.1 °C
same,unfolding enthalpy (van 't Hoff),[47],106 kcal/mol
same,Tm,[48],66 °C
same,unfolding enthalpy (van 't Hoff),[48],125 kcal/mol
same,unfolding free energy,"pH 4, 10 °C, glycine/HCl 10 mM",12 kcal/mol
same,unfolding free energy,"pH 4, 25 °C, glycine-HCl 10 mM",10 kcal/mol
same,Tm,[49],66.6 °C
same,unfolding enthalpy (van 't Hoff),[49],112 kcal/mol
